In the supplement of paper PMC12042874:
± gives the uncertainty stated by the source.

Experiment: amyloid nucleation score (Sup35N fusion, yeast selection) (log enrichment); library NNK2; higher = more nucleation; inactive = no reads after selection
How it was run: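 The nucleation score is the log enrichment of output over input reads, calculated with DiMSum and centred on the mode score of non-aggregating sequences. Sequences with under 100 input reads were excluded. Reads came from Illumina sequencing of plasmid inserts from psi-negative yeast expressing Sup35N fused to peptides of 20 random codons, induced 24 hours with 100 μM copper sulfate and grown 7 days at 30°C without adenine and uracil.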

| Substance | amyloid nucleation score |
| --- | --- |
| ILSLRNR | -0.965 ± 1 |
| ILVREHFVSIKFLSR | -1.21 ± 1.1 |
| ILVSTIEGCLDYNLCFLAGL | 1.67 ± 0.12 |
| ILWCFRSVMA | -0.327 ± 0.28 |
| ILWGERRIDSRSWKIVARYF | -0.664 ± 1.1 |
| ILYGDVWLRFKRFWLSWMPA | -0.055 ± 0.55 |
| ILYGWGRMMCRPLPQGYWMV | 0.449 ± 0.28 |
| IMCEGSTPDFIIYSCMLLVY | -1.41 ± 0.42 |
| IMFASKHCSVGVMLKIGRTF | 0.209 ± 0.33 |
| IMGHYVYDVVR | -0.352 ± 0.36 |
| IMSNGDRNAYYVKLHES | 0.123 ± 0.33 |
| INFLNWFNLFDGYMFSLSAY | inactive |
| INGCFDHPTSIETFSEEMWM | -0.533 ± 0.55 |
| INHKQGCSTVWPVAKVCMLV | 0.201 ± 1 |
| INNQGFIRPDNDSCYRFWIS | inactive |
| INQFIFGTKRMSKNYVSMVR | inactive |
| INRKGRRI | 0.007 ± 0.79 |
| INSASESKGKGIILSTNGDS | -0.717 ± 0.39 |
| INSSRSFVYDFNTWNFQDVR | -0.089 ± 0.79 |
| INTCIWASLYLSMAHEYRI | -0.793 ± 0.62 |
| INWLKYLAFLILLDMFNSFG | 0.263 ± 0.64 |
| INYSFWRSHSSP | 4.42 ± 0.099 |
| IPEVQCIKFMSYSGCHIQAL | inactive |
| IPFIRMFVSFNNLQSISIPD | 5.534 ± 0.033 |
| IPFQEWNSMFIKLSELTVES | 3.97 ± 0.058 |

| Substance | amyloid nucleation score |
| --- | --- |
| IPKHLSSSVYAYYDLRLVFV | 0.08 ± 0.22 |
| IPKKSNLFLQMETMQLLFFD | 2.67 ± 0.17 |
| IPPSLCARKLRCYYVGAEG | 0.249 ± 0.64 |
| IPRIRR | 0.622 ± 0.66 |
| IPVDT | -0.668 ± 1.1 |
| IQARSYFVPTFSFLCTHSPT | 0.839 ± 0.48 |
| IQLDRSYSHNTSSLQGWHTM | 0.062 ± 0.74 |
| IQVRRITG | 0.089 ± 0.29 |
| IQYGEIGHIFCKVVISLNLE | 1.47 ± 0.2 |
| IQYPLFSCTYEGFFGDRYMA | -0.495 ± 0.55 |
| IRAKFI | 0.455 ± 0.39 |
| IRALDGHGFSSPWARFGPAG | 0.755 ± 0.4 |
| IRANGDKSVYM | 2.21 ± 0.076 |
| IRCCAWFDLVSESRSRGTWT | 5.43 ± 0.072 |
| IRKRCGINGMYRWIWVTWYL | -1.12 ± 0.33 |
| IRLFVRLNGHRWKRNW | -0.003 ± 0.33 |
| IRMAISLFNFGFSNMFMLKE | -1.94 ± 1.1 |
| IRQAWLYS | 0.615 ± 0.13 |
| IRRTDREQ | 0.053 ± 0.24 |
| IRRVSAQVCINWSIEWKSTR | 1.07 ± 0.33 |
| IRWMTHWKV | 0.834 ± 0.43 |
| IRYPIPWFY | inactive |
| IRYVMHWFISAVILTTPPCG | 0.355 ± 0.8 |
| ISFIDHYVY | inactive |
| ISFTVYGPRMVVWLQGIMFG | -0.86 ± 0.35 |

| Substance | amyloid nucleation score |
| --- | --- |
| ISFWYHSKTS | 0.318 ± 0.57 |
| ISGVLLWIRRFKHPICEEAW | 0.371 ± 0.56 |
| ISIFFVMLLMYRMFGYVECA | 0.856 ± 0.5 |
| ISLRMKEHVICSLVPFMSQI | 0.664 ± 0.22 |
| ISLSIWQPRNSDGWKQEPAP | 2.41 ± 0.24 |
| ISLSLFRNGPIRMAKGSAWM | 6.081 ± 0.036 |
| ISMTTVDPQMEEFGLRHVGV | 0.831 ± 0.31 |
| ISPIVEIGRASTVTLSDISV | 4.71 ± 0.054 |
| ISRGRRYRTPVEILGGHMRH | 0.917 ± 0.53 |
| ISRLWCHRHLCCPGWSMVRQ | -0.063 ± 0.74 |
| ISRWTSIVFKRLNGRDKEMK | 4.29 ± 0.088 |
| ISSEWEYHDT | inactive |
| ISSLLFVETELHSVFNLWWM | -0.277 ± 0.44 |
| ISSNKGFVEVAVSWVPRDVR | 0.744 ± 0.38 |
| ISVCITILSYVRNECWFRGD | -0.432 ± 0.24 |
| ISVHSQNTYVILELVRPSML | 8.388 ± 0.04 |
| ISVRVFNRNT | 3.15 ± 0.078 |
| ISVVNSGCCCITTHPLRTYR | 9.867 ± 0.079 |
| ISYSVKPLYFVSRVRTVNLG | 4.13 ± 0.078 |
| ITCTFFFSVSVLSTSVDSMY | 0.674 ± 0.57 |
| ITDVFSMWIF | -0.73 ± 0.5 |
| ITHCLTAFSVLWILVYVW | inactive |
| ITKAASTWDLLFFVRQVCRT | 0.353 ± 0.61 |
| ITKPLVALKNGYMVL | -0.177 ± 0.56 |
| ITLLGKVLSGVVKPSYPLAA | inactive |

| Substance | amyloid nucleation score |
| --- | --- |
| ITSNSVHIGITNYYRRELDQ | 5.32 ± 0.056 |
| ITWGFNVFMFVVPSWS | 8.67 ± 0.035 |
| ITYNIEISMRDF | 4.32 ± 0.11 |
| IVAGFNSKWLSTDFNRTENR | -0.517 ± 0.78 |
| IVCDWRTP | 0.614 ± 0.41 |
| IVCPFKT | -1.35 ± 0.78 |
| IVCSC | -0.194 ± 0.45 |
| IVFYFVFRILSYGGSTIPVG | -1.15 ± 0.64 |
| IVGTDSQHVLVLQIFCVCLR | -0.326 ± 1.1 |
| IVHYVFFWMGGILGNHASFP | -1.31 ± 1.1 |
| IVILDRFSPCSRTNE | 0.45 ± 0.8 |
| IVKFDVRVMCADLIGSHGQW | 7.02 ± 0.085 |
| IVKYTGSKIYKFWYDLAGPL | -1.06 ± 1.1 |
| IVVFSGVQVRGHCWNVKGAN | 7.64 ± 0.069 |
| IVWLLLSGRF | 4.54 ± 0.098 |
| IVWSNMTIQQSTSSVY | -0.25 ± 0.25 |
| IVYKGFLREN | inactive |
| IWFSWAVCFMITFHSHTHWW | 0.598 ± 0.57 |
| IWRCNPG | 1.04 ± 0.68 |
| IYCNNPRWSFLHSLKLEPLG | -0.476 ± 0.28 |
| IYCVRQSDGQYSSEMAHYII | 2.64 ± 0.094 |
| IYFESPPTRWGGYVADNCEY | -1.36 ± 0.76 |
| IYGAMCLCP | -0.005 ± 0.63 |
| IYLGVCYFSALGRDFMSKWW | 1.77 ± 0.15 |
| IYTLL | -0.228 ± 1.1 |

| Substance | amyloid nucleation score |
| --- | --- |
| IYTRFQLFR | 4.5 ± 0.069 |
| IYYRVWMSFSFRG | -0.717 ± 0.37 |
| KAIFSCDARFVRWNAHNREC | inactive |
| KAIYPYLI | inactive |
| KALYYY | inactive |
| KARRPRIWDMDLLQLWANLP | 1.12 ± 0.66 |
| KASLDN | 0.018 ± 0.51 |
| KATDSRYRFFMILMFYMTIY | inactive |
| KAYCVHSPVVCISGRVLDSG | -1 ± 1.1 |
| KCDYPGFWMPGQSYKDSILD | -1.61 ± 1.1 |
| KCEYGLSVKYCVGQTGGN | 1.17 ± 0.48 |
| KCFKVRTDLWRSC | 1.38 ± 0.53 |
| KCIAGMSWCEH | 0.252 ± 0.2 |
| KCIIRTNKFFAFHVCKLTVN | 0.498 ± 0.3 |
| KCTTVIYYMCIGLRH | 4.98 ± 0.041 |
| KCVRKCYDIYGLLSCCGRLA | 8.844 ± 0.039 |
| KCYSYCLLAL | -0.202 ± 1.1 |
| KDAPKFIYFSQLTTKCITRY | 4.14 ± 0.044 |
| KDCISLDSIV | inactive |
| KDFLANPKGESGQQRTMQCI | -0.502 ± 0.79 |
| KDGSFSPISL | -0.116 ± 0.35 |
| KDNSTPRIGASDEIDVVLAF | 0.078 ± 0.77 |
| KDWGFRNTCG | -0.184 ± 1.1 |
| KEAPFCASGLPD | -0.324 ± 1.1 |
| KFGNSCR | -0.428 ± 0.42 |

| Substance | amyloid nucleation score |
| --- | --- |
| KFKVHQMQDVLSWVGYHDGS | 4.13 ± 0.044 |
| KFNPRPCSFKYLRV | inactive |
| KFRDVFFPY | -0.76 ± 0.55 |
| KFRNCVRKDFLSMHHFSVVF | -0.666 ± 0.45 |
| KFSTLCRISYITYLFFG | 6.336 ± 0.049 |
| KFTVDFYLTACTGTKIDFMV | 5.981 ± 0.04 |
| KGFDEVGMMAIGFDSWVGTR | 0.242 ± 0.26 |
| KGIDKPIEGPSSKHLRFNCY | 0.071 ± 0.65 |
| KGIYIFRHLCGMDVNMGPMD | -0.764 ± 0.64 |
| KGKTLLYSAKHIVFNR | 0.482 ± 0.3 |
| KGSIRCPRVFHQFRFLMG | -0.302 ± 0.74 |
| KGSSSWTLPVYSLELSLV | -0.731 ± 0.79 |
| KGVCRNMAGGKYANMRYGGV | 5.09 ± 0.051 |
| KHSWSIALV | 0.239 ± 0.65 |
| KICWYQFKANMASQ | 4.41 ± 0.086 |
| KIKYYEAIDGACNSGWFDLG | 2.92 ± 0.057 |
| KILNDWADMKSRLMGRLLGE | 0.65 ± 0.42 |
| KIRFIPTPKYHEIYMNAAIG | -1.7 ± 0.75 |
| KIRRPFEMRGSVRDRGCIVR | 0.938 ± 0.34 |
| KIVLGYCVLKITEQELMLWV | inactive |
| KKACSLFTRGFGRYRNTYEV | inactive |
| KKHIWGCMRYKMLTL | -0.393 ± 1.1 |
| KKLKRRRVFVCEFTKEGIRG | -0.067 ± 1.1 |
| KKLYFWINAHNRELTLKTWV | 0.226 ± 0.54 |
| KKRLCDTSTIFQINNLHRMM | -1.32 ± 0.76 |

| Substance | amyloid nucleation score |
| --- | --- |
| KKSYFTSLTLLFMTPFSLSY | inactive |
| KLANYHLARDSFMVRKHRKG | 0.602 ± 0.57 |
| KLAPLNKGSFA | -0.211 ± 0.63 |
| KLFCTKVNIRRTSYSVTSIY | inactive |
| KLGCYVS | 3.23 ± 0.088 |
| KLLFLLVVVLADQMSCLGTS | 1.1 ± 0.36 |
| KLPMRNFRDVCEADLHPVK | 1.11 ± 0.61 |
| KLPYVEIPVVLTSLSYLGV | inactive |
| KLSNLSHDSYMLENALFALT | 2.52 ± 0.063 |
| KLTFSCGGLGGNLYVWL | 7.999 ± 0.042 |
| KLTPYRISKMPSWLSA | inactive |
| KLVVLCFLSVIVWVNGQR | 4.67 ± 0.07 |
| KLWSSARFIWLSNHHLHGDC | 1.01 ± 0.57 |
| KLWTISVDHPGII | -1.45 ± 1 |
| KLYVAIMNSWILGKVGSYNG | 6.214 ± 0.034 |
| KMDFAFEA | -0.202 ± 0.8 |
| KMEMRGCRMVTNMYC | -0.06 ± 0.33 |
| KMIVLK | 0.449 ± 0.41 |
| KMPGFLVCW | inactive |
| KMSMSFSWWE | 3.51 ± 0.068 |
| KMSPQ | inactive |
| KNDISHS | inactive |
